Results published in paper PMC4153296, “Mutant Taq DNA polymerases with improved elongation ability as a useful reagent for genetic engineering”.

Assays:
[1] = molecular target: chimeric Taq 30-1 (Thermus aquaticus / environmental DNA chimera) (UniProt P19821); test: EMSA; settings: EMSA: 3 nM DNA, 20 mM Tris-HCl pH 8.8, 10 mM NaCl, 5 mM MgCl2, 14 mM 2-mercaptoethanol, 0.1 mg/ml BSA, 5% glycerol, 40 C, 5 min; 1% agarose gel
[2] = molecular target: chimeric Taq 1-1 (Thermus aquaticus / environmental DNA chimera) (UniProt P19821); test: EMSA; settings: EMSA: 3 nM DNA, 20 mM Tris-HCl pH 8.8, 10 mM NaCl, 5 mM MgCl2, 14 mM 2-mercaptoethanol, 0.1 mg/ml BSA, 5% glycerol, 40 C, 5 min; 1% agarose gel
[3] = molecular target: chimeric Taq 1-2 (Thermus aquaticus / environmental DNA chimera) (UniProt P19821); test: EMSA; settings: EMSA: 3 nM DNA, 20 mM Tris-HCl pH 8.8, 10 mM NaCl, 5 mM MgCl2, 14 mM 2-mercaptoethanol, 0.1 mg/ml BSA, 5% glycerol, 40 C, 5 min; 1% agarose gel
[4] = molecular target: chimeric Taq 7-2 (Thermus aquaticus / environmental DNA chimera) (UniProt P19821); test: EMSA; settings: EMSA: 3 nM DNA, 20 mM Tris-HCl pH 8.8, 10 mM NaCl, 5 mM MgCl2, 14 mM 2-mercaptoethanol, 0.1 mg/ml BSA, 5% glycerol, 40 C, 5 min; 1% agarose gel
[5] = molecular target: chimeric Taq 10-1 (Thermus aquaticus / environmental DNA chimera) (UniProt P19821); test: EMSA; settings: EMSA: 3 nM DNA, 20 mM Tris-HCl pH 8.8, 10 mM NaCl, 5 mM MgCl2, 14 mM 2-mercaptoethanol, 0.1 mg/ml BSA, 5% glycerol, 40 C, 5 min; 1% agarose gel
[6] = molecular target: chimeric Taq 8-1 (Thermus aquaticus / environmental DNA chimera) (UniProt P19821); test: EMSA; settings: EMSA: 3 nM DNA, 20 mM Tris-HCl pH 8.8, 10 mM NaCl, 5 mM MgCl2, 14 mM 2-mercaptoethanol, 0.1 mg/ml BSA, 5% glycerol, 40 C, 5 min; 1% agarose gel
[7] = molecular target: chimeric Taq 4-2 (Thermus aquaticus / environmental DNA chimera) (UniProt P19821); test: EMSA; settings: EMSA: 3 nM DNA, 20 mM Tris-HCl pH 8.8, 10 mM NaCl, 5 mM MgCl2, 14 mM 2-mercaptoethanol, 0.1 mg/ml BSA, 5% glycerol, 40 C, 5 min; 1% agarose gel
[8] = molecular target: chimeric Taq 4-1 (Thermus aquaticus / environmental DNA chimera) (UniProt P19821); test: EMSA; settings: EMSA: 3 nM DNA, 20 mM Tris-HCl pH 8.8, 10 mM NaCl, 5 mM MgCl2, 14 mM 2-mercaptoethanol, 0.1 mg/ml BSA, 5% glycerol, 40 C, 5 min; 1% agarose gel
[9] = molecular target: chimeric Taq 7-1 (Thermus aquaticus / environmental DNA chimera) (UniProt P19821); test: EMSA; settings: EMSA: 3 nM DNA, 20 mM Tris-HCl pH 8.8, 10 mM NaCl, 5 mM MgCl2, 14 mM 2-mercaptoethanol, 0.1 mg/ml BSA, 5% glycerol, 40 C, 5 min; 1% agarose gel
[10] = molecular target: chimeric Taq 29-1 (Thermus aquaticus / environmental DNA chimera) (UniProt P19821); test: EMSA; settings: EMSA: 3 nM DNA, 20 mM Tris-HCl pH 8.8, 10 mM NaCl, 5 mM MgCl2, 14 mM 2-mercaptoethanol, 0.1 mg/ml BSA, 5% glycerol, 40 C, 5 min; 1% agarose gel
[11] = molecular target: chimeric Taq 8-2 (Thermus aquaticus / environmental DNA chimera) (UniProt P19821); test: EMSA; settings: EMSA: 3 nM DNA, 20 mM Tris-HCl pH 8.8, 10 mM NaCl, 5 mM MgCl2, 14 mM 2-mercaptoethanol, 0.1 mg/ml BSA, 5% glycerol, 40 C, 5 min; 1% agarose gel
[12] = molecular target: chimeric Taq 7-3 (Thermus aquaticus / environmental DNA chimera) (UniProt P19821); test: EMSA; settings: EMSA: 3 nM DNA, 20 mM Tris-HCl pH 8.8, 10 mM NaCl, 5 mM MgCl2, 14 mM 2-mercaptoethanol, 0.1 mg/ml BSA, 5% glycerol, 40 C, 5 min; 1% agarose gel
[13] = molecular target: chimeric Taq 12-1 (Thermus aquaticus / environmental DNA chimera) (UniProt P19821); test: EMSA; settings: EMSA: 3 nM DNA, 20 mM Tris-HCl pH 8.8, 10 mM NaCl, 5 mM MgCl2, 14 mM 2-mercaptoethanol, 0.1 mg/ml BSA, 5% glycerol, 40 C, 5 min; 1% agarose gel
TaqRA = TaqRA (Thermus aquaticus, UniProt P19821 1-832, E742R); test: EMSA; 5 mM Mg2+; apparent Kd; EMSA: 3 nM DNA, 20 mM Tris-HCl pH 8.8, 10 mM NaCl, 5 mM MgCl2, 14 mM 2-mercaptoethanol, 0.1 mg/ml BSA, 5% glycerol, 40 C, 5 min; 1% agarose gel; settings: protein: recombinant; label: 32P on 27mer; primer-template; 27 bp duplex, 5' overhang 22 nt on the 49mer template
TaqHH = TaqHH (Thermus aquaticus, UniProt P19821 1-832, E742H;A743H); test: as above; settings: protein: recombinant; label: 32P on 27mer; primer-template; 27 bp duplex, 5' overhang 22 nt on the 49mer template
[14] = molecular target: Taq DNA polymerase WT (TaqEA) (Thermus aquaticus, UniProt P19821 1-832); test: as above; settings: protein: recombinant; label: 32P on 27mer; primer-template; 27 bp duplex, 5' overhang 22 nt on the 49mer template
TaqKR = TaqKR (Thermus aquaticus, UniProt P19821 1-832, E742K;A743R); test: as above; settings: protein: recombinant; label: 32P on 27mer; primer-template; 27 bp duplex, 5' overhang 22 nt on the 49mer template
TaqAR = TaqAR (Thermus aquaticus, UniProt P19821 1-832, E742A;A743R); test: as above; settings: protein: recombinant; label: 32P on 27mer; primer-template; 27 bp duplex, 5' overhang 22 nt on the 49mer template
TaqAA = TaqAA (Thermus aquaticus, UniProt P19821 1-832, E742A); test: as above; settings: protein: recombinant; label: 32P on 27mer; primer-template; 27 bp duplex, 5' overhang 22 nt on the 49mer template
TaqQY = TaqQY (Thermus aquaticus, UniProt P19821 1-832, E742Q;A743Y); test: as above; settings: protein: recombinant; label: 32P on 27mer; primer-template; 27 bp duplex, 5' overhang 22 nt on the 49mer template
TaqRR = TaqRR (Thermus aquaticus, UniProt P19821 1-832, E742R;A743R); test: as above; settings: protein: recombinant; label: 32P on 27mer; primer-template; 27 bp duplex, 5' overhang 22 nt on the 49mer template
TaqKK = TaqKK (Thermus aquaticus, UniProt P19821 1-832, E742K;A743K); test: as above; settings: protein: recombinant; label: 32P on 27mer; primer-template; 27 bp duplex, 5' overhang 22 nt on the 49mer template
TaqRK = TaqRK (Thermus aquaticus, UniProt P19821 1-832, E742R;A743K); test: as above; settings: protein: recombinant; label: 32P on 27mer; primer-template; 27 bp duplex, 5' overhang 22 nt on the 49mer template
TaqHA = TaqHA (Thermus aquaticus, UniProt P19821 1-832, E742H); test: as above; settings: protein: recombinant; label: 32P on 27mer; primer-template; 27 bp duplex, 5' overhang 22 nt on the 49mer template
TaqEH = TaqEH (Thermus aquaticus, UniProt P19821 1-832, A743H); test: as above; settings: protein: recombinant; label: 32P on 27mer; primer-template; 27 bp duplex, 5' overhang 22 nt on the 49mer template
TaqER = TaqER (Thermus aquaticus, UniProt P19821 1-832, A743R); test: as above; settings: protein: recombinant; label: 32P on 27mer; primer-template; 27 bp duplex, 5' overhang 22 nt on the 49mer template
TaqHK = TaqHK (Thermus aquaticus, UniProt P19821 1-832, E742H;A743K); test: as above; settings: protein: recombinant; label: 32P on 27mer; primer-template; 27 bp duplex, 5' overhang 22 nt on the 49mer template
TaqAH = TaqAH (Thermus aquaticus, UniProt P19821 1-832, E742A;A743H); test: as above; settings: protein: recombinant; label: 32P on 27mer; primer-template; 27 bp duplex, 5' overhang 22 nt on the 49mer template
TaqAH, sequence (P19821 whole entry E742A/A743H): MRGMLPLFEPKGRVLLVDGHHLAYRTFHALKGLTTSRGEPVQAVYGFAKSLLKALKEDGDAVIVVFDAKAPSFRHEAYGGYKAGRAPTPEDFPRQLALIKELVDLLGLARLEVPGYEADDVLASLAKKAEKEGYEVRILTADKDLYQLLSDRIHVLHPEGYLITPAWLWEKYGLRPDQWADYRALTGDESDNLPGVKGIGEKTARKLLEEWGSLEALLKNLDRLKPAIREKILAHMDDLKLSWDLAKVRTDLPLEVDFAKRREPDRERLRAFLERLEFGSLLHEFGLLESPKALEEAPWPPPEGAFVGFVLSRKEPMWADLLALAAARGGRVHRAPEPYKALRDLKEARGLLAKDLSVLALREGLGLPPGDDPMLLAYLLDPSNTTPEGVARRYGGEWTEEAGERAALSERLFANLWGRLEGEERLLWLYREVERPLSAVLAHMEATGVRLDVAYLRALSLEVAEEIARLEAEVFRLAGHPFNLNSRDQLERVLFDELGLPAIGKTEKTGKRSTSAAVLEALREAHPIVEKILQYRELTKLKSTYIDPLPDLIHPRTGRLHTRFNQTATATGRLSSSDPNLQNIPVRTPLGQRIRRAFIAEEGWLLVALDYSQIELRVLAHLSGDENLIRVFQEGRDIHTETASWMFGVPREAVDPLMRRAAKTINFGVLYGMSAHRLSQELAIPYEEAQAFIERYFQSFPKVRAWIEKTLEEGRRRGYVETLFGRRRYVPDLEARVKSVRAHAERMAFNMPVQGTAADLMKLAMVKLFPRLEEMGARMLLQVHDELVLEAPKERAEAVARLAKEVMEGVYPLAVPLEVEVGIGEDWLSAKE

TaqAA, sequence (P19821 whole entry E742A): as the sequence (P19821 whole entry E742A/A743H) above, with H743A counted along it
TaqHK, sequence (P19821 whole entry E742H/A743K): as the sequence (P19821 whole entry E742A/A743H) above, with A742H, H743K counted along it
TaqKK, sequence (P19821 whole entry E742K/A743K): as the sequence (P19821 whole entry E742A/A743H) above, with A742K, H743K counted along it
TaqRK, sequence (P19821 whole entry E742R/A743K): as the sequence (P19821 whole entry E742A/A743H) above, with A742R, H743K counted along it
TaqKR, sequence (P19821 whole entry E742K/A743R): as the sequence (P19821 whole entry E742A/A743H) above, with A742K, H743R counted along it
TaqEH, sequence (P19821 whole entry A743H): as the sequence (P19821 whole entry E742A/A743H) above, with A742E counted along it
TaqRA, sequence (P19821 whole entry E742R): as the sequence (P19821 whole entry E742A/A743H) above, with A742R, H743A counted along it
TaqHH, sequence (P19821 whole entry E742H/A743H): as the sequence (P19821 whole entry E742A/A743H) above, with A742H counted along it
TaqQY, sequence (P19821 whole entry E742Q/A743Y): as the sequence (P19821 whole entry E742A/A743H) above, with A742Q, H743Y counted along it
chimeric Taq 4-2 (Thermus aquaticus / environmental DNA chimera), sequence (P19821 whole entry, change not shown): as the sequence (P19821 whole entry E742A/A743H) above, with A742E, H743A counted along it
chimeric Taq 1-2 (Thermus aquaticus / environmental DNA chimera), sequence (P19821 whole entry, change not shown): as the sequence (P19821 whole entry E742A/A743H) above, with A742E, H743A counted along it
chimeric Taq 8-1 (Thermus aquaticus / environmental DNA chimera), sequence (P19821 whole entry, change not shown): as the sequence (P19821 whole entry E742A/A743H) above, with A742E, H743A counted along it
chimeric Taq 30-1 (Thermus aquaticus / environmental DNA chimera), sequence (P19821 whole entry, change not shown): as the sequence (P19821 whole entry E742A/A743H) above, with A742E, H743A counted along it
chimeric Taq 1-1 (Thermus aquaticus / environmental DNA chimera), sequence (P19821 whole entry, change not shown): as the sequence (P19821 whole entry E742A/A743H) above, with A742E, H743A counted along it
chimeric Taq 12-1 (Thermus aquaticus / environmental DNA chimera), sequence (P19821 whole entry, stated change not applied): as the sequence (P19821 whole entry E742A/A743H) above, with A742E, H743A counted along it
chimeric Taq 29-1 (Thermus aquaticus / environmental DNA chimera), sequence (P19821 whole entry, change not shown): as the sequence (P19821 whole entry E742A/A743H) above, with A742E, H743A counted along it
chimeric Taq 10-1 (Thermus aquaticus / environmental DNA chimera), sequence (P19821 whole entry, change not shown): as the sequence (P19821 whole entry E742A/A743H) above, with A742E, H743A counted along it
Taq DNA polymerase WT (TaqEA), sequence (P19821 whole entry): as the sequence (P19821 whole entry E742A/A743H) above, with A742E, H743A counted along it
chimeric Taq 7-2 (Thermus aquaticus / environmental DNA chimera), sequence (P19821 whole entry, change not shown): as the sequence (P19821 whole entry E742A/A743H) above, with A742E, H743A counted along it
chimeric Taq 7-1 (Thermus aquaticus / environmental DNA chimera), sequence (P19821 whole entry, change not shown): as the sequence (P19821 whole entry E742A/A743H) above, with A742E, H743A counted along it
chimeric Taq 7-3 (Thermus aquaticus / environmental DNA chimera), sequence (P19821 whole entry, change not shown): as the sequence (P19821 whole entry E742A/A743H) above, with A742E, H743A counted along it
chimeric Taq 4-1 (Thermus aquaticus / environmental DNA chimera), sequence (P19821 whole entry, change not shown): as the sequence (P19821 whole entry E742A/A743H) above, with A742E, H743A counted along it
chimeric Taq 8-2 (Thermus aquaticus / environmental DNA chimera), sequence (P19821 whole entry, change not shown): as the sequence (P19821 whole entry E742A/A743H) above, with A742E, H743A counted along it
TaqRR, sequence (P19821 whole entry E742R/A743R): as the sequence (P19821 whole entry E742A/A743H) above, with A742R, H743R counted along it
TaqHA, sequence (P19821 whole entry E742H): as the sequence (P19821 whole entry E742A/A743H) above, with A742H, H743A counted along it
TaqAR, sequence (P19821 whole entry E742A/A743R): as the sequence (P19821 whole entry E742A/A743H) above, with H743R counted along it
TaqER, sequence (P19821 whole entry A743R): as the sequence (P19821 whole entry E742A/A743H) above, with A742E, H743R counted along it

AGCTATGACCATGATTACGAATTGCTT / AGCTACCATGCCTGCACGAATTAAGCAATTCGTAATCATGGTCATAGCT [primed DNA (27mer/49mer)]
Kd [1]: 8 nM | Kd [2]: 6 nM | Kd [3]: 5 nM | Kd [4]: 5 nM | Kd [5]: 4 nM | Kd [6]: 10 nM | Kd [7]: 4 nM | Kd [8]: 4 nM | Kd [9]: 10 nM | Kd [10]: 10 nM | Kd [11]: 20 nM | Kd [12]: 4 nM | Kd [13]: 7 nM

B1: primed DNA (27mer/49mer) (dsDNA)
DNA 1: AGCTATGACCATGATTACGAATTGCTT
DNA 2: AGCTACCATGCCTGCACGAATTAAGCAATTCGTAATCATGGTCATAGCT
Kd (TaqRA): 8 nM | Kd (TaqHH): 6 nM | Kd [14]: 400 nM | Kd (TaqKR): 10 nM | Kd (TaqAR): 8 nM | Kd (TaqAA): 9 nM | Kd (TaqQY): 10 nM | Kd (TaqRR): 9 nM | Kd (TaqKK): 10 nM | Kd (TaqRK): 10 nM | Kd (TaqHA): 6 nM | Kd (TaqEH): 6 nM | Kd (TaqER): 8 nM | Kd (TaqHK): 6 nM | Kd (TaqAH): 6 nM
